Measured values as given in patent US6365126.

Molecular target: H-Ras (UniProt P01112)
Sequence (P01112 whole entry, looked up): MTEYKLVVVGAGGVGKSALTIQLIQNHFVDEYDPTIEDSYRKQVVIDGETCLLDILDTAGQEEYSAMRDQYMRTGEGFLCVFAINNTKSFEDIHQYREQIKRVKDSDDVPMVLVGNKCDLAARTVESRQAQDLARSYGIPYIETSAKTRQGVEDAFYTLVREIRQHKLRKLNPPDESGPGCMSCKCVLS

human NF1 catalytic domain fusion protein
GTPase activity of H-Ras (GAP assay): All three fusion proteins stimulated the GTPase activity of H-Ras
